In US20240368275A1 (ELPIS BIOPHARMACEUTICALS, published 2024):
Read-outs that look alike come from different tables or passages of the source.

Columns and labels:
[1] = target: T1, human Nectin4-HIS tagged recombinant protein (human, UniProt Q96NY8 32-349); test: SPR Biacore T200, bispecific captured on Protein A chip, hNectin4-HIS injected
T1 construct: also called hNectin4-HIS; Nectin4 HIS tagged protein; not shown: HIS tag
T1 sequence (looked up): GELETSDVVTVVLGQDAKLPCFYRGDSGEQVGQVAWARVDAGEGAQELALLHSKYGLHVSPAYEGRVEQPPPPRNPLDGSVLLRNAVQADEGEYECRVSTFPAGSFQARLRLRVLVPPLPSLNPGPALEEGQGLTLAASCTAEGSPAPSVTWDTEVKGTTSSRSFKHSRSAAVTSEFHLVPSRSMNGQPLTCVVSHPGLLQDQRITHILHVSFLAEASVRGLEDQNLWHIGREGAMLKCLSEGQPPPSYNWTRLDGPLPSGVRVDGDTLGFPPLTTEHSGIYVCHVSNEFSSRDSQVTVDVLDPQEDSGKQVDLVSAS
Procedure: (§1) The assay was run with Biacore T200 control software version 2.0. For each cycle, 1 ug/mL of anti-hNectin4/CD3 antibody was captured for 60 seconds at flow rate of 10 ul/min on flow cell 2 in 1×HBSP buffer on Protein A sensor chip. 2-fold serial diluted CD3E-HIS or hNectin4-HIS tagged protein was injected onto both reference flow cell 1 and anti-Nectin4/CD3 bispecific captured flow cell 2 for 150 seconds at flow rate of 30 ul/mins followed by wash for 300 seconds. The flow cells were then regenerated with Glycine pH2 for 60 seconds at flow rate of 30 ul/mins. 8 concentration points from 100 nM-0 nM (CD3E-HIS) or 300 nM-0 nM (Nectin4-HIS) was assayed per anti-Nectin4 IgG in a 96 well plate. The kinetics of Anti-Nectin4/CD3 bispecific binding to CD3E and Nectin4 proteins was analyzed with Biacore T200 evaluation software version 3.0. The specific binding response unit was derived from subtraction of binding to reference flow cell 1 from antibody captured flow cell 2. Table 10 below listed the kinetics results. ND means not determined. NA means data not available.

CD3 on Jurkat cells [2] = target: T2, CD3 on Jurkat cells (UniProt P07766 23-207, limits assumed); test: flow cytometry on Jurkat cells
T2 construct: whole, on cells; the whole CD3/TCR complex stands on the cells; also called Jurkat CD3
Procedure: (§2) Jurkat cells were plated at 100,000 cells/well in a 96-well plate with 50 μL of full media. Anti-Nectin4/CD3 antibodies were 3-fold serial titrated from 20 nM. 50 μL was added to the cells and incubated for 1 hours at room temperature with shaking. Samples were washed one time with flow buffer. […] Samples were washed once with flow buffer. Samples were stained with 100 uL Zombie Fixable Viability Dyes at 1:800 dilution per well and incubated in dark at room temperature for 30 mins. Samples were spun down at 1300 rpm for 5 minutes and washed once with 200 uL flow buffer. Reconstituted samples in 200 uL of flow buffer and read on Attune NxT cytometer. EC50 values for CD3 binding were calculated using Prism 8.1 software.
Similar methods of above mentioned were used to measure the binding activities of anti-Nectin4/CD3/IL-2 complexes to CHO/Nectin4 and Jurkat cells, respectively.

[3] = target: T3, Nectin4 on Nectin4 positive cancer cell lines (T47D, HT1376, HCC1500, HT-29) (human, UniProt Q96NY8 32-510); test: cell-based or functional assay
T3 sequence (looked up): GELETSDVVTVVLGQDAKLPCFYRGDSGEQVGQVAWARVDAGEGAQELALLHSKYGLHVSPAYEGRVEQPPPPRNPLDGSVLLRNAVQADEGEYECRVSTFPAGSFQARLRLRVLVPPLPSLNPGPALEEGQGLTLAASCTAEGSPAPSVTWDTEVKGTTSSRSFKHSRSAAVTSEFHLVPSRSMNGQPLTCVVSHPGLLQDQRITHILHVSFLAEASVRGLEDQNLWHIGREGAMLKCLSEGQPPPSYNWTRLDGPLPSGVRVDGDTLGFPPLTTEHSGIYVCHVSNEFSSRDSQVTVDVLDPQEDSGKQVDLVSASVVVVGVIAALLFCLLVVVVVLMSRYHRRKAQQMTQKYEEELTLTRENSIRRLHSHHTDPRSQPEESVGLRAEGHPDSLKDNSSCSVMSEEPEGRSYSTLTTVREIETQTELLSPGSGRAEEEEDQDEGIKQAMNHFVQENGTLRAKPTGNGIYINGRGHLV

CD3 on Jurkat cells [4] = target: T2, CD3 on Jurkat cells; test: cell-based or functional assay
[5] = target: T3, Nectin4 on Nectin4 positive cancer cell …; test: flow cytometry on T47D cells
[6] = target: T4, human CD3E HIS tagged protein (human, UniProt P07766 23-126); test: ELISA, coated human CD3E HIS tagged protein, bispecific titrated, anti-Human HRP
T4 construct: not shown: HIS tag
Procedure: An ELISA assay was developed to determine the EC₅₀ of anti-Nectin4/CD3 bispecific antibodies. Briefly, 384 well plate was immobilized with human CD3E or Nectin4 HIS tagged protein at final concentration of 2 ug/mL in 1×PBS in total volume of 25 uL per well. The plate was incubated overnight at 4° C. followed by blocking with 80 uL of superblock per well for 1 hour. Purified anti-Nectin4/CD3 was 3-fold serial titrated from 100 nM. 25 uL was added to human Nectin4/CD3 immobilized wells and incubated for 1 hour with shaking. The CD3E or Nectin4 binding was detected by adding 25 uL of anti-Human HRP diluted at 1:10000 in 1×PBST. In between each step, the plate was washed 3 times with […] in a plate washer. The plate was then developed with 20 ul of TMB substrate for 5 mins and stopped by adding 20 ul of 2N sulfuric acid. The plate was read at OD450 nm Biotek plate reader and then plotted in Prism 8.1 software to calculate EC50.

[7] = target: T4, human CD3E HIS tagged protein; test: SPR Biacore T200, bispecific captured on Protein A chip, CD3E-HIS injected
Procedure: as §1

[8] = target: T5, full-length human Nectin4 with C-terminal flag and Myc tags on CHO cells (human, UniProt Q96NY8 32-510); test: flow cytometry on CHO/Nectin4 cells
T5 construct: whole, on cells; also called Nectin4/CHO; CHO/Nectin4; not shown: C-terminal flag and Myc tags of pCMV6-Entry vector
T5 sequence (looked up): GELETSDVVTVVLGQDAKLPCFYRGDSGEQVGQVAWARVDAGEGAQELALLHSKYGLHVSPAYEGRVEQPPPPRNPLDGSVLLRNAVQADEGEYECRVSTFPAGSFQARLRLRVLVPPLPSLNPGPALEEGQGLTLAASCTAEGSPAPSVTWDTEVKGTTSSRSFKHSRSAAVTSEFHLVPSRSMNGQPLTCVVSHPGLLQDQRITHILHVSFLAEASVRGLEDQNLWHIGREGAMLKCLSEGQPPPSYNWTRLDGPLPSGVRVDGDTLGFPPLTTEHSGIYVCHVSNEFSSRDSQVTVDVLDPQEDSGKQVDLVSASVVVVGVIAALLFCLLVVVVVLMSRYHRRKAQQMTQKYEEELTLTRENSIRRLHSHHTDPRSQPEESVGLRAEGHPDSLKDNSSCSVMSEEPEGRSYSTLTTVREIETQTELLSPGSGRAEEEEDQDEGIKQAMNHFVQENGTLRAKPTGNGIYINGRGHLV

[9] = target: T3, Nectin4 on Nectin4 positive cancer cell …; test: flow cytometry on HT1376 cells
CD3 on Jurkat cells [10] = target: T2, CD3 on Jurkat cells; test: flow cytometry on Jurkat cells; remark: listed apart in the source
Procedure: as §2

[11] = target: T1, human Nectin4-HIS tagged recombinant …; test: ELISA, coated Nectin4 HIS tagged protein, bispecific titrated, anti-Human HRP
[12] = target: T3, Nectin4 on Nectin4 positive cancer cell …; test: cell-based or functional assay; remark: listed apart in the source

T4 sequence (P07766 23-126 limits assumed): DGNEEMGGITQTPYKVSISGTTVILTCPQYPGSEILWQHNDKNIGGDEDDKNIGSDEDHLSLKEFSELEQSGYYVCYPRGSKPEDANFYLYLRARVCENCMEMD
T2 sequence (P07766 23-207 limits assumed): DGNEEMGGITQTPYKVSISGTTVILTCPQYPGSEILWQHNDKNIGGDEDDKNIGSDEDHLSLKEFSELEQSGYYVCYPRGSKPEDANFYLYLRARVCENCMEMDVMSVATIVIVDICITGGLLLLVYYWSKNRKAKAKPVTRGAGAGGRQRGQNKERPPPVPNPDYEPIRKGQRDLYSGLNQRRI

Kd [1]: 3.67 nM
koff [1]: 0.000472 s⁻¹
kon [1]: 129000 M⁻¹ s⁻¹
EC50 (CD3 on Jurkat cells [2]): 4.37 nM
EC50 Values in CTL Assay Against T47D Cancer Cells (PBMC) [3]: 0.0047 nM
EC50 Values in CTL Assay Against T47D Cancer Cells (T cell) [3]: 0.0064 nM
NFAT reporter EC50 (CD3 on Jurkat cells [4]): 0.0004 nM
EC50 [5]: 0.044 nM
EC50 [6]: 0.011 nM
Kd [7]: 3.26 nM
koff [7]: 0.000739 s⁻¹
kon [7]: 227000 M⁻¹ s⁻¹
EC50 [8]: 0.146 nM
EC50 [9]: 0.14 nM
EC50 (CD3 on Jurkat cells [10]): 4.7 nM
EC50 [11]: 0.21 nM
EC50 Values in CTL Assay Against PBMC [12]: 0.0014 nM
B1: EP458/EP378/EP289 anti-Nectin4/CD3 bispecific antibody (bispecific antibody)
heavy 1: EVQLVQSGAEVKKPGASVKVSCKASGYTFTGYYMHWVRQAPGQGLEWMGRINPNSGGTNYAQKFQGRVTMTRDTSISTAYMELSGLRSDDTAVYFCARVTYNIGWYIDYWGQGTLVTVSSASTKGPSVFPLAPSSKSTSGGTAALGCLVKDYFPEPVTVSWNSGALTSGVHTFPAVLQSSGLYSLSSVVTVPSSSLGTQTYICNVNHKPSNTKVDKKVEPKSCDGGGGSGGGGSEVQLVESGGGLVQPGGSLRLSCAASGFTFSTYAMNWVRQAPGKGLEWVGRIRSKYNNYATYYADSVKGRFTISRDDSKNTLYLQMNSLRAEDTAVYYCVRHGNFGDSYVSWFAYWGQGTLVTVSSGGGGSGGGGSGGGGSGGGGSQAVVTQEPSLTVSPGGTVTLTCGSSTGAVTTSNYANWVQQKPGKSPRGLIGGTNKRAPGVPARFSGSLLGGKAALTISGAQPEDEADYYCALWYSNHWVFGGGTKLTVLEPKSCDKTHTCPPCPAPEAAGGPSVFLFPPKPKDTLMISRTPEVTCVVVDVSHEDPEVKFNWYVDGVEVHNAKTKPREEQYNSTYRVVSVLTVLHQDWLNGKEYKCKVSNKALGAPIEKTISKAKGQPREPQVCTLPPSRDELTKNQVSLSCAVKGFYPSDIAVEWESNGQPENNYKTTPPVLDSDGSFKLVSKLTVDKSRWQQGNVFSCSVMHEALHNHYTQKSLSLSPGK
heavy 2: not shown
light: QAVVTQPPSVSVAPGKTATITCGGNNIGSKGVHWYQQKPGQAPVLVIYYDTDRPSGIPERLSGSNSGNTATLTISRVEAGDEADYYCQVWDSSSDHPVFGGGTKLTVLGQPKANPTVTLFPPSSEELQANKATLVCLISDFYPGAVTVAWKADGSPVKAGVETTKPSKQSNNKYAASSYLSLTPEQWKSHRSYSCQVTHEGSTVEKTVAPTECS
notes: Bivalent for Nectin4: B09 heavy chain with sp34 scFv between CH1 and hinge, hole (EP458); B09 heavy chain knob (EP378); light chain EP289 pairs with both; also called EP458/378/289
